# In article PMC8322138, “BRCA2 binding through a cryptic repeated motif to HSF2BP oligomers does not impact meiotic recombination” (Nature Communications, 2021):
# Ends that are not written are not given here.
# B1: armadillo domain of HSF2BP, from aa 122 to aa 334 (ARM) (domain or fragment, human, UniProt O75031 122-334, looked up)
# chain: EMGAAACTLLWGVSSSEEVVKAILGGDKALKFFSITGQTMESFVKSLDGDVQELDSDESQFVFALAGIVTNVAAIACGREFLVNSSRVLLDTILQLLGDLKPGQCTKLKVLMLMSLYNVSINLKGLKYISESPGFIPLLWWLLSDPDAEVCLHVLRLVQSVVLEPEVFSKSASEFRSSLPLQRILAMSKSRNPRLQTAAQELLEDLRTLEHNV
# notes: Free ARM is a dimer (SEC-MALS); four ARM with two F15X in the complex; A selenomethionine-labelled form was used for the deposited crystal structure; also called HSF2BP ARM; H3 (recombinant); source: E. coli BL21 DE3 Rosetta2, purified (HisTrap, TEV cleavage, SEC)
# B2: F0: Human BRCA2 fragment aa 2213 to aa 2342 including mutation C2332T, recombinant (protein)
# chain: STYSKDSENYFETEAVEIAKAFMEDDELTDSKLPSHATHSLFTCPENEEMVLSNSRIGKRRGEPLILVGEPSIKRNLLNEFDRIIENQEKSLKASKSTPDGTIKDRRLFMHHVSLEPITTVPFRTTKERQ
# modifications: left off: GB1, C-terminal, cleaved | His6, C-terminal, cleaved
# notes: Human BRCA2 fragment aa 2213 to aa 2342 including mutation C2332T, recombinant
# B3: mouse HSF2BP, endogenous in mES cells (natural protein)
# chain: MAATVGDGSGTEEACRNMESKEEFVKVRKKDLERLTTEVMQIRDFLPRILNGELLESFQKLKMVEKNLERKEQELEQLIMDREHFKARLETAQADSGREKKEKLALRQQLNEAKQQLLQQAEYCTQMGAVTCTLLWGVSSSEEVVKTILGGDKALKFFNITGQTMESFVKSLDGDVKEVDSDENQFVFALAGIVTNVAAIACGREFLVNSSRVLLDTMLQLLGDLKPGQCTKLKVLMLMSLYNVSINSKGLKYITESPGFIPLLWWLLSDPDAEVCLHTLRLIQSVVLEPDVFSKVASELQSSLPLQRILAMSKSRNSHLQSAAQELLEDLRALDCNV
# Tests used:
# [1] = molecular target: mouse HSF2BP-GFP (homozygous Hsf2bp-GFP knock-in allele) (mouse (endogenous in mES cells)) (UniProt Q9D4G2); assay: co-IP; anti-GFP nanobody beads on lysates of Hsf2bp^GFP/GFP mES cells with Brca2 wt, ∆12 or ∆12-14 alleles; BRCA2 blotted, fluorescent secondary antibodies; NETT buffer
# ARM domain of HSF2BP [2] = molecular target: T1, ARM domain of HSF2BP (Homo sapiens, UniProt O75031); assay: Analytical gel filtration of ARM with F15XΔ12; format: physicochemical; details: SEC, Superose 6 Increase 10/300, ARM to peptide ratio 1:1.2, pH 7.5
# T1 construct: The armadillo domain of HSF2BP, from aa 122 to aa 334; 6xHis-TEV (N, cleaved yes); made in house; host or cells: E. coli BL21 DE3 Rosetta2
# T1 sequence (O75031 122-334): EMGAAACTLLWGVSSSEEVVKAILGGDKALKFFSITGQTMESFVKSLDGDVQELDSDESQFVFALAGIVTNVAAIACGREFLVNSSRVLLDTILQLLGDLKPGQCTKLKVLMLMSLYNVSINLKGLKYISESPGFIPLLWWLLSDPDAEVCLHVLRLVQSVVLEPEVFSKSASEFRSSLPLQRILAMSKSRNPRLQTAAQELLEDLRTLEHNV
# Procedure: SEC was also used to characterize ARM and ARM bound to F15XΔ12. The ARM domain was loaded on a Superose 6 Increase 10/300 (GE Healthcare) alone (at 2 mg/ml) or bound to F15XΔ12 (at 5 mg/ml, ARM to peptide ratio 1:1.2) in 25 mM Tris-HCl buffer, pH 7.5, 250 mM NaCl, and 5 mM β-mercaptoethanol. The OD values from the elution of ARM alone were multiplied by 2.5 to be compared to the OD values from the elution of ARM bound to F15XΔ12.
# HSF2BP FL = molecular target: T2, HSF2BP FL (Homo sapiens, UniProt O75031); assay: ITC of BRCA2 fragments with full-length HSF2BP; format: binding; details: for n (stoichiometry) / ΔG / −TΔS / ΔH (±error) / affinity (in words): 293 K; for stoichiometry: BRCA2 peptide per HSF2BP
# T2 construct: Human full-length HSF2BP WT and R200T were expressed; 6xHis-TEV (N, cleaved yes); made in house; host or cells: E. coli BL21 DE3 Rosetta2
# T2 sequence (O75031 1-334): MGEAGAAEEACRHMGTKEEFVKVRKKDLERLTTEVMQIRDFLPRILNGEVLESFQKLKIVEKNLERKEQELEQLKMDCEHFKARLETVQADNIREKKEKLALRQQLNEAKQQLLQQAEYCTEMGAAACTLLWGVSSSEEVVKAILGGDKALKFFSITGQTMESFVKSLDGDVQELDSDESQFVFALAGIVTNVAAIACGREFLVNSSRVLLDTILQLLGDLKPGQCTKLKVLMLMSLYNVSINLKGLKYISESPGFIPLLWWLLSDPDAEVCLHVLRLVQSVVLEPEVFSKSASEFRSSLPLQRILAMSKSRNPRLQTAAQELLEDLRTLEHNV
# Source text: (§1) Human full-length HSF2BP WT and R200T were expressed using a pETM11 (6xHis-TEV) expression vector in E. coli BL21 DE3 Rosetta2 cells, and purified as previously reported (Brandsma et al., Cell Rep 2019). The armadillo domain of HSF2BP, from aa 122 to aa 334, which we will further name ARM, was similarly expressed using a pETM11 (6xHis-TEV) expression vector in BL21 DE3 Rosetta2 cells and purified as full-length HSF2BP.
# (§2) Human BRCA2 fragment F0 was expressed using a pET-22b expression vector as a fusion protein comprising BRCA2 from aa 2213 to aa 2342 (including mutation C2332T to avoid oxidation problems), a TEV site, a GB1 and 6xHis tag, in E. coli BL21 DE3 Star cells. The BRCA2 gene was optimized for expression in bacteria and synthesized by Genscript. In addition, smaller BRCA2 fragments were produced using the same strategy: FNMR and F15X corresponding to aa 2252 to aa 2342 and aa 2291 to aa 2343, respectively. The smallest fragment F15X∆12, from aa 2312 to aa 2342, was synthesized by Genecust.
# (§3) ITC experiments were performed using a high-precision VP-ITC instrument (GE Healthcare) at 293 K. To characterize the interactions between HSF2BP and BRCA2 fragments (WT, variants), the proteins were dialyzed against 25 mM Tris pH 7.5, 250 mM NaCl, 5 mM β-mercaptoethanol. The HSF2BP (or ARM domain) was in the sample cell at 10–20 μM and was titrated by BRCA2 fragments at 40–100 μM, using 10 μL injections with 210 s intervals between each injection. The first 2 μL injection was ignored in the final data analysis. The integration of the peaks corresponding to each injection. the correction for the baseline and the fit were performed using the Origin 7.0 software provided by the manufacturer, to obtain the stoichiometry (N), dissociation constant (Kd), and enthalpy of complex formation (ΔH) for each interaction. Two replicates were performed for each experiment.
# [3] = molecular target: the molecule itself; assay: SEC-MALS + other: SEC-SAXS; ARM with F15X; SEC-MALS on Superdex 200 10/300 GL, SEC-SAXS on Bio SEC-3; 25 mM Tris-HCl pH 7.5, 250 mM NaCl, 5 mM beta-mercaptoethanol; tetramer = two ARM dimers with two F15X
# [4] = molecular target: the molecule itself; assay: SEC-MALS; free ARM; Superdex 200 10/300 GL; 25 mM Tris-HCl pH 7.5, 250 mM NaCl, 5 mM beta-mercaptoethanol; 0.8-1 mg/ml in 100 ul
# ARM domain of HSF2BP [5] = molecular target: T1, ARM domain of HSF2BP; assay: ITC of BRCA2 fragments with HSF2BP armadillo domain; format: binding; details: for ΔG / −TΔS / ΔH (±error): 293 K
# Source text: as §1, §2, §3
# HSF2BP mutant R200T = assay: ITC of BRCA2 F0 with HSF2BP R200T; format: binding, human; details: ITC control
# Procedure: as §1, §3
# [6] = NMR chemical shift secondary structure analysis of F0; format: physicochemical, human; details: 50 mM Hepes pH 7.0, 50 mM NaCl, 283 K, 700 MHz
# Procedure: (§4) For NMR analysis, ^15N-labeled or ^15N- and ^13C-labeled BRCA2 fragments were produced in E. coli BL21 DE3 Star cells grown in M9 medium containing either 0.5 g/l ^15NH4Cl or 0.5 g/l ^15NH4Cl and 2 g/l ^13C-glucose, respectively. […]
# (§5) The ^15N/^13C-labeled F0 fragment was analyzed by 3D heteronuclear NMR. in order to assign its Hn, N, Cα, Cβ, and Co chemical shifts, and identify its binding site to HSF2BP. Therefore, 3D NMR HNCA, CBCACONH, HNCACB, HNCANNH, HNCO, and HNCACO experiments were performed on a 700 MHz Bruker AVANCE NEO spectrometer equipped with a triple resonance cryogenic TCI probe at 283 K. The data were processed using Topspin 4.0 (Bruker) and analyzed using CCPNMR 2.4[49]. […] For binding studies, 2D NMR ^1H-^15N HSQC experiments were recorded on a 3-mm-diameter sample tube containing the ^15N-labeled F0 at 100 μM in the absence and presence of the ARM domain at 100 μM, on a 950 MHz Bruker Avance III spectrometer equipped with a triple resonance cryogenic TCI probe at 283 K.
# ARM domain of HSF2BP [7] = molecular target: T1, ARM domain of HSF2BP; assay: 2D NMR 1H-15N HSQC of 15N-labeled F0 with ARM; format: binding; details: 15N-F0 100 μM, ARM 1:1, 950 MHz, 283 K, pH 7.0; region S2252-Q2342
# Procedure: as §4, §5
# [8] = molecular target: mouse BRCA2-GFP ∆12 (exon 12 deleted) (mouse (endogenous in mES cells)) (UniProt P97929); assay: co-IP; anti-GFP nanobody beads on lysates of mES cells with homozygous Brca2-GFP alleles (full, ∆12, ∆12-14); HSF2BP blotted, fluorescent secondary antibodies; NETT buffer
# [9] = pH 7.5, expt 1, error in brackets
# [10] = pH 7.5, expt 2, error in brackets
# Chain of mouse BRCA2-GFP ∆12 (exon 12 deleted) (mouse (endogenous in mES cells)) (P97929 whole entry, stated change not applied): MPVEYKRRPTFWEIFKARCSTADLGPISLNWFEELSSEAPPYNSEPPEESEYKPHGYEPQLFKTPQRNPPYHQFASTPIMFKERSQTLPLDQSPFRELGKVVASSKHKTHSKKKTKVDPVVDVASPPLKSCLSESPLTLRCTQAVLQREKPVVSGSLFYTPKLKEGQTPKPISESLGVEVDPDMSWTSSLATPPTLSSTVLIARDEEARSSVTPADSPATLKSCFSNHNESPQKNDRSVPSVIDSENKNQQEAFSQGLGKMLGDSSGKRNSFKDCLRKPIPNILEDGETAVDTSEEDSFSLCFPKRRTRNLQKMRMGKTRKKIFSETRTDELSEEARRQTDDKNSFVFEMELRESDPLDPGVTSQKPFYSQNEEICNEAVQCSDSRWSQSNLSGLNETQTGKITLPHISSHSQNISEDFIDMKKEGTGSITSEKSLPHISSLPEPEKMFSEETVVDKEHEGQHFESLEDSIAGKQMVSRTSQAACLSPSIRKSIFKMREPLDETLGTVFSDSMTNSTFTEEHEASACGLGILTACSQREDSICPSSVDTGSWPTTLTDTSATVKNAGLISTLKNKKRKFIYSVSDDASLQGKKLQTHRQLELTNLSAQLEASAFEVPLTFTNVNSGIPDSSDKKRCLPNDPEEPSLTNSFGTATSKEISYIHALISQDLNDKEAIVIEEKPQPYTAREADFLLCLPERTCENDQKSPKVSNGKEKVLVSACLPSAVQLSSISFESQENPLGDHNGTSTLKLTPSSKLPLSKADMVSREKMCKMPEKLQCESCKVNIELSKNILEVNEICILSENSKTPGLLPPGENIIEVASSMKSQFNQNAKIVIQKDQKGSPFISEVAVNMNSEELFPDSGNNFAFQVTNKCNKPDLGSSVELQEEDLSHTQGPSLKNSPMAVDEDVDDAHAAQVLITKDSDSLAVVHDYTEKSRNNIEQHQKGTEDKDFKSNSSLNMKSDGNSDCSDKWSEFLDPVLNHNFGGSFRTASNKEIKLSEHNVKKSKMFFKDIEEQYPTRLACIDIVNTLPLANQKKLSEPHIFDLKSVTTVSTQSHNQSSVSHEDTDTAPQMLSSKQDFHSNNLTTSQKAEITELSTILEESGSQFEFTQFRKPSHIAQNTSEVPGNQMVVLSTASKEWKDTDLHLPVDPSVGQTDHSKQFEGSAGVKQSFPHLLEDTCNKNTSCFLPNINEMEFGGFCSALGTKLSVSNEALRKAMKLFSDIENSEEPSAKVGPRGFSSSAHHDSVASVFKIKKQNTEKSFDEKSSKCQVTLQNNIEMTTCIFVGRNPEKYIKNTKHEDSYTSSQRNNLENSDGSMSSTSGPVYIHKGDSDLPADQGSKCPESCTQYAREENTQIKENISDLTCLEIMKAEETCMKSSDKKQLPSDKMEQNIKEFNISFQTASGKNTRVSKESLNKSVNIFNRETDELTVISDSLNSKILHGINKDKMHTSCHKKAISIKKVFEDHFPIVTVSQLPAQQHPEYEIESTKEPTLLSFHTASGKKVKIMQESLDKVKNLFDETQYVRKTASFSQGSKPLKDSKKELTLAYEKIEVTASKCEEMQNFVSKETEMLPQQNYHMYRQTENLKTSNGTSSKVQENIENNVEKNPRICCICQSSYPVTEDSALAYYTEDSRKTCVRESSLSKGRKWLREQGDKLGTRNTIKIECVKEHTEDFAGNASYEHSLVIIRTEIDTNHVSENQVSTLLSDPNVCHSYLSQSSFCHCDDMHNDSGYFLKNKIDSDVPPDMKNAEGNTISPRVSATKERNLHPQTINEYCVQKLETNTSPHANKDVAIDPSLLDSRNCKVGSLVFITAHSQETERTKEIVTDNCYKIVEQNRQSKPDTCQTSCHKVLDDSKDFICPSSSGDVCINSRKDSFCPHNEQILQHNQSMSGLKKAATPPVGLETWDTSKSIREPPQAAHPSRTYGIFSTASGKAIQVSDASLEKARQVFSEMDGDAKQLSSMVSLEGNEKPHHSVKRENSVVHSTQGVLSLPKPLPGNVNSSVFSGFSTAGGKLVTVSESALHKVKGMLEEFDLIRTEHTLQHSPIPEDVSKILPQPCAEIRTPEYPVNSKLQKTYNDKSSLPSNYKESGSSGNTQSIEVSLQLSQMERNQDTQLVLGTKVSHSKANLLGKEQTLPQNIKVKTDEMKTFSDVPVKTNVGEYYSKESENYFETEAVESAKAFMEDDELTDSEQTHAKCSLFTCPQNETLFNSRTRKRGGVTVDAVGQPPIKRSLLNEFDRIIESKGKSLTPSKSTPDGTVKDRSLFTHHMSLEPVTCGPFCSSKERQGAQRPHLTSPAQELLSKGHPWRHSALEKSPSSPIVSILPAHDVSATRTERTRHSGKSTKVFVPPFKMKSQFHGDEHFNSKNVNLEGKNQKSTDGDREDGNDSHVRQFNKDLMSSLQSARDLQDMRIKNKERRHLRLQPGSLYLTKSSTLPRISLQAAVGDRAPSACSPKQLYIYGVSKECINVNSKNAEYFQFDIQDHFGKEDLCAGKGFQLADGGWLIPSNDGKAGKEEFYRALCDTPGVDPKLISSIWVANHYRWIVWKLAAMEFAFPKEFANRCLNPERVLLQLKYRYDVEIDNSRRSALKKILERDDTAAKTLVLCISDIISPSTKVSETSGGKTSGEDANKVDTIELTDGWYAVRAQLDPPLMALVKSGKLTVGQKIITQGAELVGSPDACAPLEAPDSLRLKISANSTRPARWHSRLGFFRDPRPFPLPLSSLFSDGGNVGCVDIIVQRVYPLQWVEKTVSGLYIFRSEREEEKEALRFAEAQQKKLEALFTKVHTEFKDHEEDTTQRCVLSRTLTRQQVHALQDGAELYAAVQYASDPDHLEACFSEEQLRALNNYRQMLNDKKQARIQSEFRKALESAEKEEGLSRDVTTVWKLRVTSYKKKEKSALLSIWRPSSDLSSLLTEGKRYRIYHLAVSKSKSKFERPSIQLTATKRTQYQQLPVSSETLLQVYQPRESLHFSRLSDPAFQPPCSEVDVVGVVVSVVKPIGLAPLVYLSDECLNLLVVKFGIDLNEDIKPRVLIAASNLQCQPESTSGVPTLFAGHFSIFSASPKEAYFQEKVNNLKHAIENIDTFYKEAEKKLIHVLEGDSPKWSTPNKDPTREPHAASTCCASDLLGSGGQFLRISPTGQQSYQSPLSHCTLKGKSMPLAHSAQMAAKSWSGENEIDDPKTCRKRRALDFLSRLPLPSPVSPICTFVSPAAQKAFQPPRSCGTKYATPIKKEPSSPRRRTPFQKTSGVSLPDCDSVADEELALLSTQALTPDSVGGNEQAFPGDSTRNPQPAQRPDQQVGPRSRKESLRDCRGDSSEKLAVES
molecule,measurement,setting,value
mouse BRCA2-∆12 in Hsf2bp^GFP/GFP Brca2^∆12/∆12 mES cells (from UniProt P97929 1-3329) (natural protein),percent loss of co-precipitation against wild-type BRCA2,[1],97 to 99%
DGTIKDRRLFMHHVSLEPITTVPFRTTKERQE [F15XΔ12],oligomerization of ARM upon binding,ARM domain of HSF2BP [2]; listed as F15X∆12,does not oligomerize
same,oligomerization of ARM upon binding,ARM domain of HSF2BP [2]; listed as motif 2,unable by itself to trigger oligomerization
same,n (stoichiometry),"HSF2BP FL; pH 7.5, expt 1",0.89
same,ΔG,"HSF2BP FL; pH 7.5, expt 1",-7.8 kcal/mol
same,−TΔS,"HSF2BP FL; pH 7.5, expt 1",-6.1 kcal/mol
same,ΔH (±error),HSF2BP FL; [9],−1.7 (0.3) kcal/mol
same,n (stoichiometry),"HSF2BP FL; pH 7.5, expt 2",0.90
same,ΔG,"HSF2BP FL; pH 7.5, expt 2",-7.6 kcal/mol
same,−TΔS,"HSF2BP FL; pH 7.5, expt 2",-5.8 kcal/mol
same,ΔH (±error),HSF2BP FL; [10],−1.8 (0.2) kcal/mol
same,affinity (in words),"HSF2BP FL; pH 7.5, listed as F15X∆12",in the micromolar range
same,affinity (in words),"HSF2BP FL; pH 7.5, listed as motif 2",micromolar affinity
same,stoichiometry,HSF2BP FL,1
same,affinity relative to F0 (weaker),HSF2BP FL; weaker than the affinity of HSF2BP for F0,1000 -fold
B1,stoichiometry N,[3],4
same,stoichiometry N,[4],2
B2,ΔG,"ARM domain of HSF2BP [5]; pH 7.5, expt 1",-10 kcal/mol
same,−TΔS,"ARM domain of HSF2BP [5]; pH 7.5, expt 1",-1.7 kcal/mol
same,ΔH (±error),ARM domain of HSF2BP [5]; [9],−8.3 (0.2) kcal/mol
same,ΔG,"ARM domain of HSF2BP [5]; pH 7.5, expt 2",-10.1 kcal/mol
same,−TΔS,"ARM domain of HSF2BP [5]; pH 7.5, expt 2",1.8 kcal/mol
same,ΔH (±error),ARM domain of HSF2BP [5]; [10],−11.9 (0.2) kcal/mol
same,stoichiometry,ARM domain of HSF2BP [5]; one BRCA2 peptide binds to two ARM,0.5
same,binding,HSF2BP mutant R200T,does not bind
same,"transient α-helix population, region N2291-S2303",[6],about 25%
same,ΔG,"HSF2BP FL; pH 7.5, expt 1",-11.8 kcal/mol
same,−TΔS,"HSF2BP FL; pH 7.5, expt 1",-0.8 kcal/mol
same,ΔH (±error),HSF2BP FL; [9],−11.0 (0.1) kcal/mol
same,−TΔS,"HSF2BP FL; pH 7.5, expt 2",-1.0 kcal/mol
same,ΔH (±error),HSF2BP FL; [10],−10.9 (0.1) kcal/mol
same,stoichiometry,HSF2BP FL,0.5
same,affinity ratio HSF2BP vs ARM,HSF2BP FL; HSF2BP binds tighter to F0 than does ARM,about 25 -fold
same,HSQC peak intensity ratio (with ARM / free),ARM domain of HSF2BP [7],lower than 0.4
B3,percent loss of co-precipitation against full-length BRCA2-GFP,[8],95%
